To fix the notation:
B1: DLA0316-rbIgG (antibody, V domains shown)
VH: QEQLVESGGGLVQPGGSLKLSCKVSGFDFSNYGVSWVRQAPGKGLEWIGYIDPAFGRTYYASWVNGRFTISSHNAQNTLYLQLNSLTAADTATYFCVRVALVVAGVAYYGMDVWGPGTLVTVSS
VL: DVVMTQTPASVEAAVGGTVTINCQASQNIYSYLSWYQQKPGQPPKLLIYRTSTLASGVPSRFKGSGSGTQFTLTISDLECADAATYYCQSYYYSSGSSYGAFAFGGGTEVVVK
notes: also called bivalent DLA0316; Bivalent anti-DLL3 antibody
B2: DLA0769 (antibody, human IgG1, V domains shown)
VH: QEQLVESGGGLVQPEGSLTLTCTASGFSFSSSGYMCWVRQAPGKGLEWIACISGGSSGDTDYANWAKGRFSISKTSSTTVTLQMTSLTVADTATYFCARDVYIDSTIFNFNLWGPGTLVTVSS
VL: QVLTQTPSPVSAAVGGTVTISCQASQSVYNNNNLAWYQQKPGQPPKLLIYAASSLASGVPSRFKGSGAGTQFTLTISDLECDDAATYYCQGTYYSSGWYSTFGGGTEVVVK
notes: Rabbit B-cell clone, screened as B-cell culture supernatant
B3: DLA0379 (antibody, human IgG1, V domains shown)
VH: QSLEESGGRLVTPGTPLTLTCTASGFSLNTYHMIWVRQAPGKGLEWIGIVDSGGSTYYASWAKGRFTISRTSTTVDLKATSLTTEDTATYFCARGGSWDGFNIWGPGTLVTVSS
VL: DVVMTQTPSSVSAAVGGTVTINCQSSQSVYNSDFLAWYQQKPGQPPKLLIYAASTLASGVPSRFKGSGSGTQFTLTISDLECDDAATYYCQGTYEDVGWFNDFGGGTEVVVK
notes: as for B2
B4: DLA0580 (antibody, human IgG1, V domains shown)
VH: QEQLVESGGGLVQPGASLTLTCKASGFDFTSNAMCWVRQAPGKGPEWIACIYNDDGSAYSASWAKGRFTVSKTSSTAVTLQVTGLTAADTATYFCARSPYYTYGGAPSAYASGYFNLWGPGTLVTVSS
VL: DIVMTQTPASVEAAVGGTVTIKCQASENIYNSLAWYQQKPGQPPKLLMHDASVLTSGVPSRFSGSGYGTEFTLTISDLECADAATYYCQSDYYSTGGSYGFAFGGGTEVVVK
notes: as for B2
B5: DLA0106 (antibody, human IgG1, V domains shown)
VH: QSVEESGGRLVTPGTPLTLTCTVSGIDLSSYAMSWVRQAPGKGLEWIGIISNSGSGFYANWAKGRFTISKTSSTTVDVKISSPTTEDTATYFCARVFDADSSGYYYYGMDPWGPGTLVTVSS
VL: DVVMTQTPSSVSEPVGGTVTIKCQASEDIESYLAWYQQKPGQPPKLLIYAASTLASGVSSRFRGSGSGTEYTLTISDLECADAATYYCQSTYYDSSGVDWAFGGGTEVVVK
notes: as for B2
B6: DLA0126 (antibody, human IgG1, V domains shown)
VH: QSVEESGGRLVTPGTPLTLTCTVSGFSLSRYAMSWVRQAPGKGLEWIGIITGGGDPYYASWAKGRFTISKTSTTMDLKITSPTTEDTATYFCARMIGSEYASSSEYYDAFDPWGPGTLVTVSS
VL: ALVMTQTPSSVSAAVGGTVTINCQASQNIYSNLAWYQQKPGQRPKLLIYGASNLESGVPSRFKGSGSGTEYTLTISDLECDDAAIYYCQSAYYTTSVDVLYPFGGGTEVVVK
notes: as for B2
B7: DLA0841 (antibody, human IgG1, V domains shown)
VH: QEQLVESGGGLVQPEGSLTLTCTASGFSFSSSYDMCWVRQAPGKGPEWIACIYTGDGSTDYASWAKGRFTVSKASSTTVTLQMTSLAVADTATYFCARNSGYGYFGLWGPGTLVTVSS
VL: QVLTQTPSPVSAAVGGTVTISCQSTESVYGSDWLSWYQQKPGQPPKVLIYQASNLEIGVPSRFKGSGSGTQFTLTISGAQCDDAATYYCQGYYSGYIYAFGGGTEVVVK
notes: as for B2
B8: DLA0641 (antibody, human IgG1, V domains shown)
VH: QEQLVESGGGLVQPGASLTLTCKASGFSFNTSYCPCWVRQVPGKGPEWIACIDAGYSGATWYANWAKGRFTISKTSSTTVTLQMTSLTGADTATYFCVRCDAAGSGAFNLWGPGTLVTVSS
VL: AYDMTQTPASVEVPVGGTVTIKCQASQSIYSYLSWYQQKPGQPPKLLIYEASKLTSGVPSRFSGSGSGTEFTLTISGVQCDDAATYYCQQGSGYMDVDNVFGGGTEVVVK
notes: as for B2

The first assay deals with T1, human DLL3 on the surface of cancer cell lines SK-MEL 30, NCI-H1436 and NCI-H2227 (human, UniProt Q9NYJ7 27-618).
T1 construct: whole, on cells; Endogenous protein of human cancer cell lines
T1 sequence (looked up): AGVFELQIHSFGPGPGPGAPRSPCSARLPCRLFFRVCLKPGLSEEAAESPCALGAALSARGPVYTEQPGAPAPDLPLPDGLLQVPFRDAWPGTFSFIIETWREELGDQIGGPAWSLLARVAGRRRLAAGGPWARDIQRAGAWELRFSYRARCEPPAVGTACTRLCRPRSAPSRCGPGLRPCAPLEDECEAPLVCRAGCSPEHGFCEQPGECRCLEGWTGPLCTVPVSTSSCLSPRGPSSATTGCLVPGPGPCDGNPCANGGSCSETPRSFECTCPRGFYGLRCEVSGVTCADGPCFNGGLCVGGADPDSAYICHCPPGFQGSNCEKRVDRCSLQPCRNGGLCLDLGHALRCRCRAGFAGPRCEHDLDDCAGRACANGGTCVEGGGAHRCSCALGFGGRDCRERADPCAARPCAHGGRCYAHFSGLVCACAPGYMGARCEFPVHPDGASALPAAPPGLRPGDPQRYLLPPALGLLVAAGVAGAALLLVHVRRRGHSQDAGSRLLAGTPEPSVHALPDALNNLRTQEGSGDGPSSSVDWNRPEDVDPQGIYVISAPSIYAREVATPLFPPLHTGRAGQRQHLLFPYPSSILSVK
Put plainly: flow cytometry on SK-MEL-30 cells, 20 micro g/mL antibody, FITC-labeled goat anti-rabbit IgG [A]. As for the experimental part: The cancer cells (5×10⁵ cells) were washed with 0.5% BSA-supplemented CellWASH (BD Bioscience) (hereinafter referred to as FACS/PBS). Bivalent anti-DLL3 antibody (DLA0316-rbIgG) or the control antibody (rabbit IgG) was added at a final concentration of 20 micro g/mL in a 50 micro L solution. After being left to stand at 4 degrees C. for 30 to 60 minutes, the cells were washed with FACS/PBS, and an FITC-labeled goat anti-rabbit IgG antibody diluted 50-fold with FACS/PBS was added to the cells. After being left to stand at 4 degrees C. for further 30 minutes, the cells were washed with FACS/PBS, and analyzed by FACS Verse (Becton Dickinson).
(In general: A flow cytometer gives signals particle by particle.)
For B1, the binding result was “binds”.

The target in the next assay is T2, human DLL3 (delta-like protein 3 isoform 1 precursor) expressed on Ba/F3 cells (human, UniProt Q9NYJ7 27-618).
T2 construct: Full-length cDNA stably transfected into mouse Ba/F3 cells; also called human DLL3 expressing Ba/F3
T2 sequence: T1 sequence (looked up)
The assay is described as follows: cell ELISA, B-cell culture supernatants on immobilized hDLL3/BaF_H3 cells. As for the experimental part:
ELISA screening was conducted to test specificity of antibodies in B-cell culture supernatants. Human DLL3 expressing Ba/F3 (hDLL3/BaF_H3 established in Example 2, 2.5×10⁴ cells) were immobilized onto a Nunc MaxiSorp 384-well plate (Sigma-Aldrich) which was pre-coated with BSA (Sigma-Aldrich) and SUNBRIGHT (registered trademark) OE-080CS as Biocompatible Anchor for cell Membrane (YUKA SANGYO). Immobilized cells were incubated with 20 microliters (micro L) of B-cell culture supernatants for 1 hour. The supernatants were aspirated and the cells were washed with HEPES buffer (0.02 M HEPES, 5 mM KCl, 4 mM NaHCO₃, 138 mM NaCl, 2 mM CaCl₂, 5 mM Glucose, 0.4 mM KH₂PO₄, 0.34 mM Na₂HPO₄° and 0.1% BSA). After washing, goat anti-rabbit IgG polyclonal antibody HRP conjugate (BETHYL, A120-111P) was added. The cells were further incubated on ice for 1 hour and washed. Then, ABTS Microwell Peroxidase Substrate (Kirkegaard & Perry Laboratories) was added and OD405 was analyzed with […]ax 384 (Molecular Devices).
For orientation: An ELISA detects its analyte on a solid surface through an enzyme-linked reagent.
On to B2, for which the binding result was “binds”.
On the same count and under the same terms, to B3 belongs “binds”; to B4, “binds”.
The same measure, in the same setting: to B5 belongs “binds”; to B6, “binds”.
Same read-out and setting: to B7 belongs “binds”.
As to B8, the binding result is reported as “binds”.

In another assay the target is T3, del0.
T3 construct: also called human DLL3 ECD with Flag-tag on C-terminus
T3 chain: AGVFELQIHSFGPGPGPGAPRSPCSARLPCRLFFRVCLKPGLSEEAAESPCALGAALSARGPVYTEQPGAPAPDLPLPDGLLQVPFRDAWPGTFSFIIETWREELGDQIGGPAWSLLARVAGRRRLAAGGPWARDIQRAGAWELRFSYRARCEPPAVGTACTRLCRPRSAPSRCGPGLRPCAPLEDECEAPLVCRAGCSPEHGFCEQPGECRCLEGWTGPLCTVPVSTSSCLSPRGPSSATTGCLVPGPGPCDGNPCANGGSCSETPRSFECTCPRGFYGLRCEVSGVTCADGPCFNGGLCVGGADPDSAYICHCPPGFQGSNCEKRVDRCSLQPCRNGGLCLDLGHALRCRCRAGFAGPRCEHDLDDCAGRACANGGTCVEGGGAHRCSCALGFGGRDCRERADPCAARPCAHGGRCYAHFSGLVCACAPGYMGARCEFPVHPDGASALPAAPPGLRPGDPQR
Put plainly: ELISA with the human DLL3 ECD fragment proteins del0 to del6, OD405. As for the experimental part: (§1) Nunc MaxiSorp 384-well plates (Sigma-Aldrich) were coated with each of the human DLL3 ECD fragment proteins del0 to del6, and blocked with 20% Blocking One (NACALAI TESQUE). Blocking buffer was removed and recombinant anti-DLL3 antibodies were incubated with the immobilized proteins for 1 hour at room temperature and washed with HEPES buffer (0.05% Tween20, HEPES). Monoclonal ANTI-FLAG M2-Peroxidase, Clone M2 (Sigma-Aldrich) was then added and incubated for 1 hour at room temperature and washed. Then, ABTS Microwell Peroxidase Substrate (Kirkegaard & Perry Laboratories) was added and OD405 was analyzed with […]ax 384 (Molecular Devices).
B2: the binding result is given as “binds”.
For the molecule B3, the binding result is listed as “binds”.
On to B4, for which the binding result is “binds”.
The same measure, in the same setting: the value for B5 was “binds”; that for B6 was “binds”; that for B7 was “binds”.
Still for that read-out and setting: to B8 belongs “binds”.

The target in the next assay is T4, del5.
T4 construct: also called truncated human DLL3 ECD variant with Flag-tag on C-terminus
T4 chain: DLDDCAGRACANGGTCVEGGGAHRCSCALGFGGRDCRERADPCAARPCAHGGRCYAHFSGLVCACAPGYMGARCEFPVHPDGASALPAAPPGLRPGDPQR
The description is as above. As for the experimental part: as §1
On to B3, for which the binding result is recorded as “no binding”.
Same read-out and setting: to B4 belongs “no binding”; to B5, “no binding”.
Same read-out and setting: the value for B6 was “no binding”.

The target in another assay is T5, del4.
T5 construct: also called truncated human DLL3 ECD variant with Flag-tag on C-terminus
T5 chain: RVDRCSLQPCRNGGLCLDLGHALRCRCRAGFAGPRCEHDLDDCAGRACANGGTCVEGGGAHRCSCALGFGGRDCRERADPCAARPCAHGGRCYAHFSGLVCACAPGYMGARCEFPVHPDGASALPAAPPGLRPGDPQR
Described as above. As for the experimental part:
as §1
For the molecule B3, the binding result is given as “no binding”.

For another assay, the target named is T6, del3.
T6 construct: also called truncated human DLL3 ECD variant with Flag-tag on C-terminus
T6 chain: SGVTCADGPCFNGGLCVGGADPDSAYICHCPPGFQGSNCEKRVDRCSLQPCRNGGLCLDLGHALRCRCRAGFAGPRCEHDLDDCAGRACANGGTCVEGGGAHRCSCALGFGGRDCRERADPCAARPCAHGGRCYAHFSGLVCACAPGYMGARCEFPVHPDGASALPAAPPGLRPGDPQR
Described as above. As for the experimental part:
as §1
On to B3, for which the binding result is listed as “no binding”.

For a further assay, the target named is T7, del2.
T7 construct: also called truncated human DLL3 ECD variant with Flag-tag on C-terminus
T7 chain: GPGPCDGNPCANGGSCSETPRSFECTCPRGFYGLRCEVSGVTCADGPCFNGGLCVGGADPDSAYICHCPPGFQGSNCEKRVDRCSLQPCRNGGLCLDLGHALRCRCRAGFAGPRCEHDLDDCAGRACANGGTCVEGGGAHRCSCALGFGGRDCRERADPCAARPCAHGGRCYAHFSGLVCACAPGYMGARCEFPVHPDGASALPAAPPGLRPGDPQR
Described as above. As for the experimental part:
as §1
Take B3: the binding result is given as “no binding”.

The next assay addresses T8, del6.
T8 construct: also called truncated human DLL3 ECD variant with Flag-tag on C-terminus
T8 chain: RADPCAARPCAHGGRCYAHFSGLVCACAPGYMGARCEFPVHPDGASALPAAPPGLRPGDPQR
Described as above. As for the experimental part:
as §1
For the molecule B3, the binding result is recorded as “no binding”.
The same measure, in the same setting: the value for B4 was “no binding”.
Take B5: the binding result was “no binding”.
In the case of B6, the binding result is recorded as “no binding”.

Source of the values: US20240150465A1 (Chugai, published 2024).
